Measurements from patent US20120277142A1 (HANALL BIOPHARMA, published 2012).
Positions count from the first letter of the chain named.

B1: TNFRI171-S31 (receptor)
chain: MDSVCPQGKYIHPQNNSICCTKCHKGTYVYNDCPGPGQDTDCRECESGSFTAIENFLPACLSCSKCRKEMGQVEISSCTVDRDTVCGCRKNQYRHYWSENLFQCFNCSLCLNGTVHLSCQEKQNTVCTCHAGFFLRENECVSCSNCKKSLECTKLCLPQIENVKGTEDSGTT
notes: Met-TNFRI171 superlead mutant made in E. coli
B2: TNFRI171-S41 (receptor)
chain: B1 chain with I53H
notes: as for B1
B3: TNFRI171-S57 (receptor)
chain: B1 chain with I53M, K122N
notes: as for B1
B4: TNFRI171-S54 (receptor)
chain: B1 chain with K122N
notes: as for B1
B5: TNFRI171-S39 (receptor)
chain: B1 chain with V29L, I53M, E161Q
notes: as for B1
B6: TNFRI171-S55 (receptor)
chain: B1 chain with D168N
notes: as for B1
B7: TNFRI171-S32 (receptor)
chain: B1 chain with V29L, K122Q
notes: as for B1
B8: TNFRI171-S37 (receptor)
chain: B1 chain with V29L, I53M, K122Q
notes: as for B1
B9: TNFRI171-S46 (receptor)
chain: B1 chain with A59G
notes: as for B1
B10: TNFRI171-S52 (receptor)
chain: B1 chain with V29L, E54P, A59G, D168N
notes: as for B1
B11: TNFRI171-S49 (receptor)
chain: B1 chain with V29L, E54P, A59G, K122Q
notes: as for B1
B12: TNFRI171-S35 (receptor)
chain: B1 chain with V29L, D168N
notes: as for B1
B13: TNFRI171-S59 (receptor)
chain: B1 chain with I53H, K122Q
notes: as for B1
B14: TNFRI171-S62 (receptor)
chain: B1 chain with A59G, K122Q
notes: as for B1
B15: TNFRI171-S36 (receptor)
chain: B1 chain with I53M
notes: as for B1
B16: TNFRI171-S51 (receptor)
chain: B1 chain with V29L, E54P, A59G, E161Q
notes: as for B1
B17: TNFRI171-S60 (receptor)
chain: B1 chain with I53H, K122N
notes: as for B1
B18: TNFRI171-S43 (receptor)
chain: B1 chain with V29L, I53H, K122N
notes: as for B1
B19: TNFRI171-S47 (receptor)
chain: B1 chain with I53M, A59G
notes: as for B1
B20: TNFRI171-S33 (receptor)
chain: B1 chain with V29L, K122N
notes: as for B1
B21: TNFRI171-S63 (receptor)
chain: B1 chain with I53M, A59G, K122N
notes: Met-TNFRI171 superlead mutant made in E. coli; also called TNFRI-S63
B22: TNFRI171-S34 (receptor)
chain: B1 chain with V29L, E161Q
notes: as for B1
B23: TNFRI171-S42 (receptor)
chain: B1 chain with V29L, I53H, K122Q
notes: as for B1
B24: TNFRI171-S58 (receptor)
chain: B1 chain with I53M, D168N
notes: as for B1
B25: TNFRI171-S45 (receptor)
chain: B1 chain with V29L, I53H, D168N
notes: as for B1
B26: TNFRI171-S40 (receptor)
chain: B1 chain with V29L, I53M, D168N
notes: as for B1
B27: TNFRI171-S61 (receptor)
chain: B1 chain with I53H, D168N
notes: as for B1
B28: TNFRI171-S53 (receptor)
chain: B1 chain with K122Q
notes: as for B1
B29: TNFRI171-S56 (receptor)
chain: B1 chain with I53M, K122Q
notes: as for B1
B30: TNFRI171-S48 (receptor)
chain: B1 chain with E54P, A59G
notes: as for B1
B31: TNFRI171-S44 (receptor)
chain: B1 chain with V29L, I53H, E161Q
notes: as for B1
B32: TNFRI171-S50 (receptor)
chain: B1 chain with V29L, E54P, A59G, K122N
notes: as for B1
B33: TNFRI171-S38 (receptor)
chain: B1 chain with V29L, I53M, K122N
notes: as for B1
B34: TNFRI126-A2 (receptor)
chain: MDSVCPQGKYIHPQNNSICCTKCHKGTYLYNDCPGPGQDTDCRECESGSFTAIENFLPACLSCSKCRKEMGQVEISSCTVDRDTVCGCRKNQYRHYWSENLFQCFNCSLCLNGTVHLSCQEKQNTVC
notes: Met-TNFRI126 mutant made in E. coli
B35: TNFRI126-A3 (receptor)
chain: B34 chain with I53G
notes: as for B34
B36: TNFRI126-A4 (receptor)
chain: B34 chain with I53A
notes: as for B34
B37: TNFRI126-A7 (receptor)
chain: B34 chain with I53P
notes: as for B34
B38: TNFRI126-A18 (receptor)
chain: B34 chain with I53H
notes: as for B34
B39: TNFRI126-A10 (receptor)
chain: B34 chain with I53W
notes: as for B34
B40: TNFRI126-A1 (receptor)
chain: B34 chain with I53S
notes: as for B34
B41: TNFRI126-A9 (receptor)
chain: B34 chain with I53M
notes: as for B34
B42: TNFRI126-A15 (receptor)
chain: B34 chain with I53Y
notes: as for B34
B43: TNFRI126-A19 (receptor)
chain: B34 chain with I53D
notes: as for B34
B44: TNFRI126-A16 (receptor)
chain: B34 chain with I53K
notes: as for B34
B45: TNFRI126-A17 (receptor)
chain: B34 chain with I53R
notes: as for B34
B46: TNFRI126-A13 (receptor)
chain: B34 chain with I53Q
notes: as for B34
B47: TNFRI126-A14 (receptor)
chain: B34 chain with I53T
notes: as for B34
B48: TNFRI126-A5 (receptor)
chain: B34 chain with I53V
notes: as for B34
B49: TNFRI126-A6 (receptor)
chain: B34 chain with I53L
notes: as for B34
B50: TNFRI126-A8 (receptor)
chain: B34 chain with I53F
notes: as for B34
B51: TNFRI126-A12 (receptor)
chain: B34 chain with I53N
notes: as for B34

Target: T1, TNF-α (UniProt P01375 77-233, limits assumed)
T1 construct: also called tumor necrosis factor; ligand
Test: competition ELISA: sample vs plate-bound TNFRI190 for TNF-α, from IC50, relative to wild-type TNFRI171
Procedure: (§1) Each well was washed three times with 300 μL of washing buffer (0.05% Tween-20, PBS, pH 7.4) and incubated at room temperature for 2 hours with 300 μL of a blocking buffer (5% skim milk, PBS, pH 7.4). Then, each well was washed as mentioned above. A sample of interest was diluted to concentrations of 500 nM, 125 nM, 31 nM, 7.8 nM, 1.9 nM, 0.48 nM, 0.12 nM, and 0.03 nM in series and loaded in an amount of 100 μL into each well in duplicate. To each well was added 100 μL of 50 ng/ml TNF-α, followed by incubation at room temperature for 2 hours. After the wells were washed with a washing buffer, 100 μg/mL anti-TNF-α antibody solution was diluted 1/1000, added in an amount of 100 μL per each well, and incubated at room temperature for 2 hours. After the plates were washed with a washing buffer, a substrate was added in an amount of 100 μL to each well and reacted at room temperature for 15 min. In each well, 100 μL of the substrate 3,3′,5,5′-tetramethylbenzidine (RnD, Cat. No: DY999) was reacted at room temperature for 15 min, followed by adding 50 μL of 1.0 M sulfuric acid (Samchun Chemical, Cat. No: 52129) to each well to stop the reaction.
The affinity of the Met-TNFRI for TNF-α was assayed using the same procedure as in [Experimental Example 1]

| Relative Affinity for Ligand (%) | Binder |
| --- | --- |
| 563 | B1 |
| 558 | B2 |
| 773 | B3 |
| 900 | B4 |
| 705 | B5 |
| 973 | B6 |
| 668 | B7 |
| 668 | B8 |
| 805 | B9 |
| 626 | B10 |
| 547 | B11 |
| 521 | B12 |
| 684 | B13 |
| 1200 | B14 |
| 510 | B15 |
| 537 | B16 |
| 775 | B17 |

| Relative Affinity for Ligand (%) | Binder |
| --- | --- |
| 579 | B18 |
| 758 | B19 |
| 568 | B20 |
| 1350 | B21 |
| 700 | B22 |
| 416 | B23 |
| 978 | B24 |
| 679 | B25 |
| 773 | B26 |
| 778 | B27 |
| 1020 | B28 |
| 510 | B29 |
| 594 | B30 |
| 694 | B31 |
| 589 | B32 |
| 589 | B33 |

Target: T1, TNF-α
Test: competition ELISA: sample vs plate-bound TNFRI190 for TNF-α, from IC50, relative to wild-type TNFRI126
Procedure: as §1
Affinity of Met-TNFRI and Met-TNFRI mutants for TNF-α was determined by measuring an absorbance change with concentration and evaluating IC₅₀ value by measuring an absorbance change with concentration.

| Affinity (%) | Binder |
| --- | --- |
| 829 | B34 |
| 341 | B35 |
| 524 | B36 |
| 600 | B37 |
| 1010 | B38 |
| 800 | B39 |
| 324 | B40 |
| 941 | B41 |
| 941 | B42 |
| 482 | B43 |
| 882 | B44 |
| 771 | B45 |
| 806 | B46 |
| 765 | B47 |
| 712 | B48 |
| 741 | B49 |
| 865 | B50 |
| 659 | B51 |
